Paper PMC12363564, “Modulation of the PTPRS proteoglycan switch by antibodies binding to the membrane-proximal fibronectin-type III domain” (The Journal of Biological Chemistry, 2025)

How the values were obtained:
[1] = biological target: T1, C-terminally 6xHis tagged mouse PTPRS (mPTPRS) ECD (Mus musculus, UniProt B0V2N1); test: BLI; His-tagged ligand (mPTPRS ECD or hPTPRS Fn9) immobilised on anti-6xHis probes at 100 to 200 nM; antibodies or scFv-Fc fusions as analytes; Gator K buffer (0.02% BSA, 0.002% Tween-20 in PBS, pH 7.4), 37 °C; biphasic (2:1) association model; conditions: both partners purified
T1 construct: also called mPTPRS ectodomain; PTPRS ectodomain; source: HEK293T, transiently transfected, supernatant; purified (Ni-NTA, HiTrap heparin); not shown: His6, C-terminal, kept

[2] = biological target: T2, C-terminally 6xHis tagged mouse PTPRS (mPTPRS) ECD (mouse, UniProt B0V2N1 30-1257); test: BLI
T2 chain: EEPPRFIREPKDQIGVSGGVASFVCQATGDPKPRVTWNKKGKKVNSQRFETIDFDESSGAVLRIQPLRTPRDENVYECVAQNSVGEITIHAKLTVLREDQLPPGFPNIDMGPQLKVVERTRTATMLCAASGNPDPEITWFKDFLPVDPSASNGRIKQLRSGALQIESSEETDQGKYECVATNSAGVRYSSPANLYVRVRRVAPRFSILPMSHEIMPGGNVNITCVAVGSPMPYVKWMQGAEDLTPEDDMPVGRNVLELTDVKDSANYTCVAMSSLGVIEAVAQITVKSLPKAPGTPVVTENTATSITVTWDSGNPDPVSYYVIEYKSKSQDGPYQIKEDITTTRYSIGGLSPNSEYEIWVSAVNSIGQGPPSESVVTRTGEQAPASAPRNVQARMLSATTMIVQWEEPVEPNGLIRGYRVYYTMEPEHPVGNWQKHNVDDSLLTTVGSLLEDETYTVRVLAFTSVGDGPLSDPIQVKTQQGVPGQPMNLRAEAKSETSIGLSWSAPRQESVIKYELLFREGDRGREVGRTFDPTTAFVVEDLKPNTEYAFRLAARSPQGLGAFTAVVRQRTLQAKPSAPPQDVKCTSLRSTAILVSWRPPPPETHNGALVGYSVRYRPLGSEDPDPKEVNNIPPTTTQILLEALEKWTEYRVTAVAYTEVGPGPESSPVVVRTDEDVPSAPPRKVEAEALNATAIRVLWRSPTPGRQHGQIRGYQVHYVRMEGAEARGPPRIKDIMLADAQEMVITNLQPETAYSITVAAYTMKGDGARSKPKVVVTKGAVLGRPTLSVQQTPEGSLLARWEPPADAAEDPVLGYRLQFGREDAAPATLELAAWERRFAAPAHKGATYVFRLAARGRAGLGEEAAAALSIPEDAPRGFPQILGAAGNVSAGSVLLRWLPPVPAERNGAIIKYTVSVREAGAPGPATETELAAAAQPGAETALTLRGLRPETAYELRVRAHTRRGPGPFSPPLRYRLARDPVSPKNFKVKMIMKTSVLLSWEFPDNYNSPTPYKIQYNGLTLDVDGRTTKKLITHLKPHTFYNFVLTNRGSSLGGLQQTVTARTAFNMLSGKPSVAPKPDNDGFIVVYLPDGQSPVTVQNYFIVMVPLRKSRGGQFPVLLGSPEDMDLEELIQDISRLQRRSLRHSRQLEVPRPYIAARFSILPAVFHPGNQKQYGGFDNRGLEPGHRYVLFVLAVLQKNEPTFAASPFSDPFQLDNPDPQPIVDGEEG

[3] = biological target: T3, WT human PTPRS (hPTPRS) isoform 1 with a C-terminal HA tag (human, UniProt Q13332); test: co-IP; RIPA lysates of HEK293T cells overexpressing HA-tagged full length or truncated hPTPRS incubated with the antibody for 2 h at 4 °C, Protein G Sepharose, anti-HA blot; conditions: one partner purified
T3 construct: human PTPRS isoform 1, open reading frame in pcDNA3.1 (+); also called PTPRS-HA; hPTPRS-HA; source: HEK293T, transfected; in RIPA lysate (immunoprecipitation), on or in cells (flow cytometry, PLA); not shown: HA, C-terminal, kept
T3 sequence (Q13332 30-1948): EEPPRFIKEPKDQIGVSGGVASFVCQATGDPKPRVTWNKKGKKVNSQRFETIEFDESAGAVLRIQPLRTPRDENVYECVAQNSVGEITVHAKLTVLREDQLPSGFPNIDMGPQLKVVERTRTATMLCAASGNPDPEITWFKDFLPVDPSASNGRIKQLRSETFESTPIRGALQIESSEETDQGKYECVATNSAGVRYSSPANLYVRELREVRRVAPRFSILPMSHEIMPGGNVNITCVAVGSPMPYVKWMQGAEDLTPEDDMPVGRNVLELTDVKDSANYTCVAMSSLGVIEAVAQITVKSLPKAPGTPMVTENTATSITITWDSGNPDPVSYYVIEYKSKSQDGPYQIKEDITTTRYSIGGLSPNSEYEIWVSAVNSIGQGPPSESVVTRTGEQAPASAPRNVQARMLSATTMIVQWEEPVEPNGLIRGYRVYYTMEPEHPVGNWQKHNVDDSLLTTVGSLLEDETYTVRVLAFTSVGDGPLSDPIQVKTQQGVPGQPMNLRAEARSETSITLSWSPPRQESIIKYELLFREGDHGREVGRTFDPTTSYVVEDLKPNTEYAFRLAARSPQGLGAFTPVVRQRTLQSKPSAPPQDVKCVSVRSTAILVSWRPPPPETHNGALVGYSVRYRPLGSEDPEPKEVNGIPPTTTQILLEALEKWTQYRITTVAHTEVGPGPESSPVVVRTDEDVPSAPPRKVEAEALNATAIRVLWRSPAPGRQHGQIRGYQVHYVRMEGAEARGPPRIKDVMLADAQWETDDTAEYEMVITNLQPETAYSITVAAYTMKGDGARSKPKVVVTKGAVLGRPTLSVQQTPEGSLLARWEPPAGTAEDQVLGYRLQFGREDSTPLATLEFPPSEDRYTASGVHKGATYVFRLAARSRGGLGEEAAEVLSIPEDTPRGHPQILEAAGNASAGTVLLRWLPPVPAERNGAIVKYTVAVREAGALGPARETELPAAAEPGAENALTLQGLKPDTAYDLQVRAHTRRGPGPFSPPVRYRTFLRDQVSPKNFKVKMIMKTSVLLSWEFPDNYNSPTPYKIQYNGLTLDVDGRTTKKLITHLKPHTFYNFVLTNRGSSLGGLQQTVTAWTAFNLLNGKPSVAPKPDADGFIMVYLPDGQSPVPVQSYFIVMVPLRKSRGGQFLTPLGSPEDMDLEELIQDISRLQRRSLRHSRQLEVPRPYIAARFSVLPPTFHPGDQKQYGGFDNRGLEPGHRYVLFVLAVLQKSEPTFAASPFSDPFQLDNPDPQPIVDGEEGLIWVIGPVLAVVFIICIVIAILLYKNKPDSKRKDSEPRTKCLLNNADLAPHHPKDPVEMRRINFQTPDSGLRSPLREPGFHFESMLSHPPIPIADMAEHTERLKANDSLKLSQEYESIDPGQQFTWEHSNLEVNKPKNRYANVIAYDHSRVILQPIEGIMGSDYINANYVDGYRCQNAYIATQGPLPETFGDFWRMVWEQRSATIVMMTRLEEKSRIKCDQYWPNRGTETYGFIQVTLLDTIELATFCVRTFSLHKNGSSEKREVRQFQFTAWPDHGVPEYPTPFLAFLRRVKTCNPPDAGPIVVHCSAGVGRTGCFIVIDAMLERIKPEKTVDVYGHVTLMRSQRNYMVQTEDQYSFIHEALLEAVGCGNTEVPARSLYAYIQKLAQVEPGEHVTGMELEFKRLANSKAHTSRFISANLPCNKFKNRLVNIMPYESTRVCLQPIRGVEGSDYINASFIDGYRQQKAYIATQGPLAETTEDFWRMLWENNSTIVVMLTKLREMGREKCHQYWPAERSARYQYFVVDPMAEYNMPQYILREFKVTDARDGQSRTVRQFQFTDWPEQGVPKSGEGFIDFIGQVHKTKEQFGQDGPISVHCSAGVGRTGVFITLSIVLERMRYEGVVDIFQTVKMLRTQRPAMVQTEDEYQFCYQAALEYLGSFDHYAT

[4] = biological target: T4, PTPRS^Δ326 (hPTPRS-HA N-terminal truncation lacking Ig-like domains 1 to 3) (Homo sapiens, UniProt Q13332, point mutant); test: as above; conditions: one partner purified
T4 construct: human PTPRS isoform 1, N-terminal truncation lacking Ig-like domains 1 to 3, obtained from WT hPTPRS-HA by site-directed mutagenesis; source: HEK293T, transfected, in RIPA lysate; not shown: HA, C-terminal, kept

[5] = biological target: T5, PTPRS^Δ1096 (hPTPRS-HA N-terminal truncation lacking the ECD including most of Fn8) (Homo sapiens, UniProt Q13332, point mutant); test: as above; conditions: one partner purified
T5 construct: human PTPRS isoform 1, N-terminal truncation lacking the ECD including most of Fn8, obtained from WT hPTPRS-HA by site-directed mutagenesis; source: HEK293T, transfected, in RIPA lysate; not shown: HA, C-terminal, kept

[6] = biological target: T2, C-terminally 6xHis tagged mouse PTPRS …; test: BLI
[7] = biological target: T2, C-terminally 6xHis tagged mouse PTPRS …; test: BLI
[8] = biological target: T2, C-terminally 6xHis tagged mouse PTPRS …; test: SPR
[9] = biological target: T1, C-terminally 6xHis tagged mouse PTPRS …; test: SPR; Octet SF3; anti-PTPRS Ab immobilised by amine coupling on a PCH sensor chip; analyte mPTPRS ECD 2500 nM to 9.77 nM; 1x PBS with 0.005% Tween-20; multi-cycle kinetics; conditions: both partners purified
[10] = biological target: T6, 6xHis-tagged hPTPRS Fn9 (residues 1117-1270) (human, UniProt Q13332 1117-1270); test: BLI
T6 chain: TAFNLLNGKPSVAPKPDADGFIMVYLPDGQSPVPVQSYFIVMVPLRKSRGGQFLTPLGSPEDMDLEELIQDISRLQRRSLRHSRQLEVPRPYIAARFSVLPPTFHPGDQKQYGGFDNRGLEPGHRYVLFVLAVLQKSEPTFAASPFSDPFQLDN

[11] = biological target: T3, WT human PTPRS (hPTPRS) isoform 1 with …; test: flow cytometry on cells; HEK293T cells transfected with hPTPRS-HA (WT or Fn9mut) or empty vector, incubated 1 h with the antibody, AF568-labelled anti-mouse IgG; conditions: one partner purified
[12] = biological target: T6, 6xHis-tagged hPTPRS Fn9 (residues …); test: BLI
[13] = biological target: T7, 6xHis-tagged hPTPRS Fn9 (residues 1117-1270) (Homo sapiens, UniProt Q13332); test: BLI; His-tagged ligand (mPTPRS ECD or hPTPRS Fn9) immobilised on anti-6xHis probes at 100 to 200 nM; antibodies or scFv-Fc fusions as analytes; Gator K buffer (0.02% BSA, 0.002% Tween-20 in PBS, pH 7.4), 37 °C; biphasic (2:1) association model; conditions: both partners purified
T7 construct: human PTPRS isoform 1 (Q13332), fibronectin type III-like domain 9, residues 1117-1270, amplified from WT hPTPRS and subcloned into pHLsec; the printed primers encode a start at TAFNLLN and an end at PFQLDN (translated from the primers); also called hPTPRS Fn9His; Fn9 fragment of PTPRS; source: HEK293T, transiently transfected, supernatant

[14] = biological target: T3, WT human PTPRS (hPTPRS) isoform 1 with …; test: proximity ligation; purified antibody, scFv-Fc or Fc decoy added for 30 min to the co-transfected HEK293T cells before the PLA; read-out is the loss of the PLA signal of the tagged pair; conditions: one partner purified

B1: 49F2 (mouse monoclonal antibody, IgG1/κ) (antibody, V domains shown)
VH: EVQLVESGGDLVKPGGSLKLSCAASGFIFSSYGMSWVRQTPDKRLEWVATISSGGSDTYYPDSVKGRFTISRDNANNTLYLQMSSLKSEDTAMYYCARQVYYGLYWYFDVWGAGTTVTVSS
VL: DIVMTQSHKFMSTSVGDRVSIICKASQDVNTAVAWYQQKPGQSPKLLIYSASYRYTGVPDRFTGSGSGTDFTFTISSVQAEDLAIYYCQQHYSTPYTFGGGTKLEIK
notes: VH of 49F2; constant region of the mouse IgG1 heavy chain; VL of 49F2; constant region of the mouse κ light chain; IgG1/κ; source: production contracted to Viva Biotech
In the case of B1, the Kd [1] is reported as 25.7 ± 9.66 nM, the koff [2] is reported as 0.005 s⁻¹ and the binding result [3] is reported as “binds”. B1: binds [4]; binds [5].

B2: 13G5^IgG1 (13G5 variable regions on mouse IgG1/κ constant regions) (antibody, V domains shown)
VH: EVKLVESGGGLVQPGGSLKLSCATSGFTFSDYYMYWVRQTPEKRLEWVAYISNGGGSTYYPDTVKGRFTISRDNAKNTLYLQMSRLKSEDTAMYYCARHVYYGRNYAMDYWGQGTSVTVSS
VL: DIQMTQTTSSLSASLGDRVTISCRASQDISNYLNWYQQKPDGTVKLLIYYTSRLHSGVPSRFSGSGSGTDYSLTISNLEQEDIATYFCQQGNTLPYTFGGGTKLEIK
B2 showed a Kd [6] of 16.5 nM and a koff [7] of 0.003 s⁻¹.

B3: 13G5 (mouse monoclonal antibody, IgG2b/κ) (antibody, V domains shown)
VH: B2 VH
VL: B2 VL
notes: VH of 13G5; constant region of the mouse IgG2b heavy chain; VL of 13G5; constant region of the mouse κ light chain; IgG2b/κ; also called anti-PTPRS Ab 13G5; source: production contracted to Viva Biotech
For B3, the koff [8] was 0.00079 s⁻¹, the Kd [9] was 95 nM and the Kd [1] was 122 ± 1.9 nM. The Kd [10] was 6.03 nM, the koff [2] was 0.083 s⁻¹ and the binding result [4] was “binds”. For the same binder, the binding result [5] was “binds”, the “mean fluorescence relative to 22H8” value [11] was ~2 fold and the koff [12] was 0.003 s⁻¹.

B4: 13G5^HL-scFv-Fc (VH-linker-VL scFv of 13G5 fused to human IgG1 Fc) (scFv, V domains shown)
VH: B2 VH
VL: B2 VL
Work on B4 yielded a Kd [10] of 0.28 nM and a koff [12] of 0.00016 s⁻¹.

B5: 22H8^IgG2b (22H8 variable regions on mouse IgG2b/κ constant regions) (antibody, V domains shown)
VH: QVQLQQSGAELARPGASVKLSCKASGYTFTSYWMQWVKQRPGQGLEWIGAIYPGDGDTRYTQKFKGKATLTADKSSSTAYMQLSSLASEDSAVYYCARRIYYGYYYAMDYWGQGTSVTVSS
VL: DIVLTQSPASLAVSLGQRATISCKASQSVDYDGDSYMNWYQQKPGQPPKLLIYAASNLESGIPARFSGSGSGTDFTLNIHPVEEEDAATYYCQQSNEDPLTFGAGTKLELK
notes: as the VH of m3 (22H8); constant region of the mouse IgG2b heavy chain (entire constant region swapped); as the VL of m3 (22H8); constant region of the mouse κ light chain; IgG2b/κ form of 22H8; source: production contracted to Viva Biotech
In the case of B5, the koff [7] is reported as 0.06 s⁻¹ and the Kd [1] is reported as 38.2 nM.

B6: 22H8 (mouse monoclonal antibody, IgG1/κ) (antibody, V domains shown)
VH: B5 VH
VL: B5 VL
notes: VH of 22H8; constant region of the mouse IgG1 heavy chain; VL of 22H8; constant region of the mouse κ light chain; IgG1/κ; source: production contracted to Viva Biotech
B6 was tested, and the Kd [1] was 13.2 ± 3.74 nM, the binding result [13] was “binds” and the Kd [10] was 17.6 nM. The koff [2] was 0.002 s⁻¹, the binding result [3] was “binds” and the binding result [4] was “binds”. For the same binder, the binding result [5] was “binds” and the koff [12] was 0.009 s⁻¹.

B7: 22H8^HL-scFv-Fc (VH-linker-VL scFv of 22H8 fused to human IgG1 Fc) (scFv, V domains shown)
VH: B5 VH
VL: B5 VL
notes: as the VH of m3 (22H8); linker between VH and VL; as the VL of m3 (22H8); ORF synthesized by Genscript and subcloned into pHLsec as a C-terminal hFc fusion; also called 22H8-Fc HL; source: HEK293T, transiently transfected, supernatant; purified (Protein A); not shown: Fc (human IgG1), C-terminal, kept
In the case of B7, the binding result [14] is reported as “binds”, the binding result [13] is reported as “binds” and the Kd [10] is reported as 2.65 nM. The koff [12] was 0.0056 s⁻¹.
